What was measured:
RAD51 = RAD51 (Homo sapiens, UniProt Q06609 1-339); assay: competition (fluorescence intensity); 2 mM ATP; 100x unlabeled dT39 lowers signal ~30%; FPA: 5 nM 6-FAM DNA, 37 C, 2 mM nucleotide where stated (buffer not given in material); EMSA: 0.05 uM 6-FAM DNA, 5%/15% native PAGE; RAD51 filaments: 2 mM ATP; details: protein: recombinant; tags: none; chain copies: 10; label: 5' 6-FAM
[1] = biological target: RAD51;SWSAP1 D96A (Walker B);hSWS1 (Homo sapiens;Homo sapiens;Homo sapiens, UniProt Q06609;Q6NVH7;Q19AV6 1-339;22-250;1-140, |D117A|); assay: competition (fluorescence intensity); 2 mM ATP; D96A stabilizes 5' end like WT; FPA: 5 nM 6-FAM DNA, 37 C, 2 mM nucleotide where stated (buffer not given in material); EMSA: 0.05 uM 6-FAM DNA, 5%/15% native PAGE; RAD51 filaments: 2 mM ATP; details: protein: recombinant;recombinant;recombinant; tags: none;N-terminal 6xHis-TEV, cleaved;none; label: 5' 6-FAM
RAD51;SWSAP1 D96A (Walker B);hSWS1, sequence (Q06609 whole entry, stated change not applied, one chain of several): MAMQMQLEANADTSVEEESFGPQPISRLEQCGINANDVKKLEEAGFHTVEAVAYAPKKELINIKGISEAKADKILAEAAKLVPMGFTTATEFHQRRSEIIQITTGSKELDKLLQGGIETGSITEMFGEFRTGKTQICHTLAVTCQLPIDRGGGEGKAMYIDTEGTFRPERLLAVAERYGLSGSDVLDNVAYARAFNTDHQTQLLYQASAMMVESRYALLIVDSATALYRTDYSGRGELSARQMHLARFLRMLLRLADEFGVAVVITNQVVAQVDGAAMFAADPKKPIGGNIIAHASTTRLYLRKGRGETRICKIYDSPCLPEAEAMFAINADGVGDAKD

[2] = biological target: RAD51;SWSAP1 (hSWS1-SWSAP1, WT);hSWS1 (Homo sapiens;Homo sapiens;Homo sapiens, UniProt Q06609;Q6NVH7;Q19AV6 1-339;22-250;1-140, ||); assay: competition (fluorescence intensity); 2 mM ATP; Shu inhibits exchange at 5' end; FPA: 5 nM 6-FAM DNA, 37 C, 2 mM nucleotide where stated (buffer not given in material); EMSA: 0.05 uM 6-FAM DNA, 5%/15% native PAGE; RAD51 filaments: 2 mM ATP; details: protein: recombinant;recombinant;recombinant; tags: none;N-terminal 6xHis-TEV, cleaved;none; label: 5' 6-FAM
RAD51;SWSAP1 (hSWS1-SWSAP1, WT);hSWS1, sequence (Q06609 whole entry, one chain of several): as the sequence (Q06609 whole entry, stated change not applied, one chain of several) above

Measured: binding result

RAD51, sequence (Q06609 whole entry): as the sequence (Q06609 whole entry, stated change not applied, one chain of several) above

TTTTTTTTTTTTTTTTTTTTTTTTTTTTTTTTTTTTTTT (ssDNA) [*5'-(T)39]
binds: all assays above

Reference: publication PMC12167799, “The role of human Shu complex in ATP-dependent regulation of RAD51 filaments during homologous recombination–associated DNA damage response”
